The series deals with the molecule itself. The series is described as follows: SEC.

B1: Rv2067c, recombinant tagless protein (enzyme)
chain: TDDHPRADIVSRQYHRWLYPHPIADLEAWTTANWEWFDPVHSHRILWPDREYRPDLDILIAGCGTNQAAIFAFTNRAAKVVAIDISRPALDHQQYLKDKHGLANLELHLLPIEELATLGRDFDLVVSTGVLHHLADPRAGMKELAHCLRRDGVVAAMLYGKYGRIGVELLGSVFRDLGLGQDDASIKLAKEAISLLPTYHPLRNYLTKARDLLSDSALVDTFLHGRQRSYTVEECVDLVTSAGLVFQGWFHKAPYYPHDFFVPNSEFYAAVNTLPEVKAWSVMERLETLNATHLFMACRRDRPKEQYTIDFSTVAALDYVPLMRTRCGVSGTDMFWPGWRMAPSPAQLAFLQQVDGRRTIREIAGCVARTGEPSGGSLADLEEFGRKLFQSLWRLDFVAVALPASG
What is called stoichiometry N is a count of units in the complex or per binding partner. As to B1, the “stoichiometry N” value was determined as 2.

The record behind these values is doi:10.1101/2023.02.24.529973 (bioRxiv, 2023).
